The values that follow are results of earlier work, collected in article PMC2848813.

This series deals with Hsp33 (Escherichia coli) (UniProt P0A6Y5).

In general, Kd refers to the equilibrium constant for the complex coming apart. Regarding Hsp33 (from UniProt P0A6Y5), the Kd is 600 nM.
